In paper PMC3885427:

molecular target: SOX6, full-length, yeast two-hybrid fusion (UniProt P35712); assay: yeast two-hybrid (β-galactosidase liquid assay); conditions: S. cerevisiae Y187; SOX6 in pGBT9 (BD), SHOX2 mutant in pACT2 (AD); CRPG as substrate; parent: est. 100; read off a plot
Sequence (P35712 whole entry, the tested form may be a part): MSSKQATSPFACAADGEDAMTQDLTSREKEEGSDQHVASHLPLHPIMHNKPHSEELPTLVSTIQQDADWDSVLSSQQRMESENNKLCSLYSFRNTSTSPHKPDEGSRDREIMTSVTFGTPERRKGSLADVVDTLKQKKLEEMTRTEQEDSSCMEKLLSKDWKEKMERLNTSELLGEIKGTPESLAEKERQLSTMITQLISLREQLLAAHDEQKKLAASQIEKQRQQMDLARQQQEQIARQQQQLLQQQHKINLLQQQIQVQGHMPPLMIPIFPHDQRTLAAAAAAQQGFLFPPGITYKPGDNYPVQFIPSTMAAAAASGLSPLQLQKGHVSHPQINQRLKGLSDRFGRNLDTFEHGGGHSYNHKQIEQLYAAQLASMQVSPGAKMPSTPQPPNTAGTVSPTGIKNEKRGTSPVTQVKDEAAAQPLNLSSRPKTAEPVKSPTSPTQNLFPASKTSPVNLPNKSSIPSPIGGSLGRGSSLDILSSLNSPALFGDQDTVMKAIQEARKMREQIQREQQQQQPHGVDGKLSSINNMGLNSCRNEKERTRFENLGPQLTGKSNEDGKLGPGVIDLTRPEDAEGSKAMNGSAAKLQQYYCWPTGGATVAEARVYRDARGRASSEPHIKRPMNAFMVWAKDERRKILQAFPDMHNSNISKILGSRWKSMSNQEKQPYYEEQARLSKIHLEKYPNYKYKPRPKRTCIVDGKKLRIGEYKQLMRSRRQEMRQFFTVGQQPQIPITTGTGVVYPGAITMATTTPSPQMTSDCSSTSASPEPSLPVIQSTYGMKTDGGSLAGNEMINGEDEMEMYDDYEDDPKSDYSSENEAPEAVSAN

Sequence of SHOX2a (called SHOX2 in the paper), full-length, yeast two-hybrid fusion, O60902-1 R196C (O60902 whole entry R196C, the tested form may be a part): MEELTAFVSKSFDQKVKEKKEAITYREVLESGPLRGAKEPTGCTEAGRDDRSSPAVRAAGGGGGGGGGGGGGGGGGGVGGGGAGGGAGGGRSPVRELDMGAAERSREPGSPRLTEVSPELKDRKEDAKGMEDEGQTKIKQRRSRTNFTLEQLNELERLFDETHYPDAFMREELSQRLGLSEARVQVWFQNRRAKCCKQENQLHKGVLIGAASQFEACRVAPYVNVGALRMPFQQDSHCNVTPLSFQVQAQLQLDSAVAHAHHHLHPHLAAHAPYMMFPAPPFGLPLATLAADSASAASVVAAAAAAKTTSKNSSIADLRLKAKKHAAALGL
Sequence of SHOX2a (called SHOX2 in the paper), full-length, yeast two-hybrid fusion, O60902-1 R218Q (O60902 whole entry R218Q, the tested form may be a part): as the sequence (O60902 whole entry R196C, the tested form may be a part) above, with C196R, R218Q counted along it
Sequence of SHOX2a (called SHOX2 in the paper), full-length, yeast two-hybrid fusion, O60902-1 L155V (O60902 whole entry L155V, the tested form may be a part): as the sequence (O60902 whole entry R196C, the tested form may be a part) above, with L155V, C196R counted along it
Sequence of SHOX2a (called SHOX2 in the paper), full-length, yeast two-hybrid fusion, O60902-1 K139E (O60902 whole entry K139E, the tested form may be a part): as the sequence (O60902 whole entry R196C, the tested form may be a part) above, with K139E, C196R counted along it
Sequence of SHOX2a (called SHOX2 in the paper), full-length, yeast two-hybrid fusion, O60902-1 A269D (O60902 whole entry A269D, the tested form may be a part): as the sequence (O60902 whole entry R196C, the tested form may be a part) above, with C196R, A269D counted along it
Sequence of SHOX2a (called SHOX2 in the paper), full-length, yeast two-hybrid fusion, O60902-1 R319P (O60902 whole entry R319P, the tested form may be a part): as the sequence (O60902 whole entry R196C, the tested form may be a part) above, with C196R, R319P counted along it
Sequence of SHOX2a (called SHOX2 in the paper), full-length, yeast two-hybrid fusion, O60902-1 A193P (O60902 whole entry A193P, the tested form may be a part): as the sequence (O60902 whole entry R196C, the tested form may be a part) above, with A193P, C196R counted along it

| percent of parent (% Interaction with SOX6) | Substance |
| --- | --- |
| 8 | SHOX2a (called SHOX2 in the paper), full-length, yeast two-hybrid fusion, O60902-1 A193P |
| 44 | SHOX2a (called SHOX2 in the paper), full-length, yeast two-hybrid fusion, O60902-1 K139E |
| 89 | SHOX2a (called SHOX2 in the paper), full-length, yeast two-hybrid fusion, O60902-1 R218Q |
| 87 | SHOX2a (called SHOX2 in the paper), full-length, yeast two-hybrid fusion, O60902-1 A269D |
| 10 | SHOX2a (called SHOX2 in the paper), full-length, yeast two-hybrid fusion, O60902-1 L155V |
| 29 | SHOX2a (called SHOX2 in the paper), full-length, yeast two-hybrid fusion, O60902-1 R196C |
| 80 | SHOX2a (called SHOX2 in the paper), full-length, yeast two-hybrid fusion, O60902-1 R319P |
